Ten molecules from PMC10776578, “Epstein-Barr virus-driven B cell lymphoma mediated by a direct LMP1-TRAF6 complex” (Nature Communications, 2024) can be followed below.

Sequences and labels used below:
B1: His-TRAF6_(310-522) (domain or fragment)
chain: DHQIRELTAKMETQSMYVSELKRTIRTLEDKVAEIEAQQCNGIYIWKIGNFGMHLKCQEEEKPVVIHSPGFYTGKPGYKLCMRLHLQLPTAQRCANYISLFVHTMQGEYDSHLPWPFQGTIRLTILDQSEAPVRQNHEEIMDAKPELLAFQRPTIPRNPKGFGYVTFMHLEALRQRTFIKDDTLLVRCEVSTRFDMGSLRREGFQPRSTDAGV
notes: also called His-T6; recombinant TRAF6 wild-type; source: E. coli BL21 Codon Plus RIPL, purified (Ni-NTA)
B2: LMP1-derived CTAR2 peptide 11 (amino acids 357-386, 30mer) (peptide)
peptide: PHLPTLLLGSSGSGGDDDDPHGPVQLSYYD
notes: source: synthetic peptide, spot-synthesised on cellulose membrane
B3: LMP1-derived CTAR2 peptide 8 (amino acids 371-386, 16mer) (peptide)
peptide: GDDDDPHGPVQLSYYD
notes: as for B2
B4: GST-LMP1_(181-386) (domain or fragment)
chain: LIWMYYHGQRHSDEHHHDDSLPHPQQATDDSGHESDSNSNEGRHHLLVSGAGDGPPLCSQNLGAPGGGPDNGPQDPDNTDDNGPQDPDNTDDNGPHDPLPQDPDNTDDNGPQDPDNTDDNGPHDPLPHSPSDSAGNDGGPPQLTEEVENKGGDQGPPLMTDGGGGHSHDSGHGGGDPHLPTLLLGSSGSGGDDDDPHGPVQLSYYD
notes: also called LMP1 wild-type; LMP1 signalling domain; source: E. coli DH5α or BL21 Codon Plus RIPL, purified (glutathione Sepharose 4B)
B5: GST-CD40_(216-277) (domain or fragment)
chain: KKVAKKPTNKAPHPKQEPQEINFPDDLPGSNTAAPVQETLHGCQPVTQEDGKESRISVQERQ
notes: source: E. coli DH5α or BL21 Codon Plus RIPL, purified (glutathione Sepharose 4B)
B6: His-TRAF1_(226-416) (domain or fragment)
chain: RERILSLEQRVVELQQTLAQKDQALGKLEQSLRLMEEASFDGTFLWKITNVTRRCHESACGRTVSLFSPAFYTAKYGYKLCLRLYLNGDGTGKRTHLSLFIVIMRGEYDALLPWPFRNKVTFMLLDQNNREHAIDAFRPDLSSASFQRPQSETNVASGCPLFFPLSKLQSPKHAYVKDDTMFLKCIVETST
notes: source: E. coli BL21 Codon Plus RIPL, purified (Ni-NTA)
B7: His-TRAF5_(363-557) (domain or fragment)
chain: DQRLAVLEEETNKHDTHINIHKAQLSKNEERFKLLEGTCYNGKLIWKVTDYKMKKREAVDGHTVSIFSQSFYTSRCGYRLCARAYLNGDGSGRGSHLSLYFVVMRGEFDSLLQWPFRQRVTLMLLDQSGKKNIMETFKPDPNSSSFKRPDGEMNIASGCPRFVAHSVLENAKNAYIKDDTLFLKVAVDLTDLEDL
notes: as for B6
B8: TRAF6 inhibitor peptide DRQIKIWFQNRRMKWKK-RKIPTEDEY (peptide)
peptide: DRQIKIWFQNRRMKWKKRKIPTEDEY
notes: also called RANK-derived peptide; source: bought: Novus Biologicals NBP2-26506

Positions count from the first letter of the chain named. In names and notes the source's numbering stands. Like-named read-outs stand apart in the source and are kept apart here.

One assay deals with T1, TRAF6_(346-504) for NMR (human, UniProt Q9Y4K3 346-504, uniformly labeled with 15N).
T1 construct: also called 15N-labeled TRAF6; source: E. coli Rosetta2 DE3, purified (Ni-NTA, SUMO cleavage, second Ni-NTA, SEC)
T1 sequence: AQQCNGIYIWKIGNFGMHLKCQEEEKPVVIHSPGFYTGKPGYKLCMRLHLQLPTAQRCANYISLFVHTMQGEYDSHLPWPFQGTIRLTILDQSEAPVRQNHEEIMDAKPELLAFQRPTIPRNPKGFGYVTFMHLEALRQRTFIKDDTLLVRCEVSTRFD
The experiment in a line: NMR titration. Particulars: both partners purified.

The target in assay [1] is T2, His-TRAF6_(310-522) (human, UniProt Q9Y4K3 310-522).
T2 chain: B1 chain

Assay [2] addresses T3, GST-CD40_(216-277) E235Q (human, UniProt P25942 216-277, E235Q).
T3 construct: also called CD40 E235Q; E to Q mutation at P0 of CD40; source: E. coli DH5α or BL21 Codon Plus RIPL, purified (glutathione Sepharose 4B)
T3 sequence: B5 chain with E20Q
As to the kind of experiment: AlphaScreen or HTRF; AlphaScreen PPI assay: His-TRAF and GST-LMP1, GST-CD40 or GST-RANK in PBS with 0.5% BSA and 0.1% Tween-20, 1 h at RT; standard 300 nM His-TRAF and 100 nM GST protein if not indicated otherwise; for KD His-TRAF6 at different concentrations, fit one site-specific binding with hill slope. Particulars: both partners purified. In general terms: In Alpha technology, singlet oxygen from a donor bead excites a nearby acceptor bead.

Another assay addresses T4, GST-LMP1_(181-386) Y384D (Epstein-Barr virus, UniProt P03230 181-386, Y384D).
T4 construct: also called LMP1 Y384D; source: E. coli DH5α or BL21 Codon Plus RIPL, purified (glutathione Sepharose 4B)
T4 sequence: B4 chain with Y204D
The assay is described as above. Particulars: both partners purified.

A further assay concerns the target T5, GST-RANK_(314-355) E346Q (human, UniProt Q9Y6Q6 314-355, E346Q).
T5 construct: also called RANK E346Q; E to Q mutation at P0 of RANK; source: E. coli DH5α or BL21 Codon Plus RIPL, purified (glutathione Sepharose 4B)
T5 chain: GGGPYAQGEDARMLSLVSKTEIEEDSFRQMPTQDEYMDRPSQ
The assay is described as above. Particulars: both partners purified.

Assay [3] concerns the target GST-CD40_(216-277) E235Q (human, UniProt P25942 216-277, E235Q).
Assay [4] deals with B1. As to the kind of experiment: peptide or protein array; peptides spot-synthesised on cellulose membranes in duplicate, incubated with 10 µg per mL purified His-TRAF6 or His-TRAF2 in PBST with 5% milk powder for 4 h at RT; detection by TRAF-specific antibodies. To be noted: both partners purified.
For assay [5], the target named is B1. As to the kind of experiment: AlphaScreen or HTRF; AlphaScreen PPI assay: His-TRAF and GST-LMP1, GST-CD40 or GST-RANK in PBS with 0.5% BSA and 0.1% Tween-20, 1 h at RT; standard 300 nM His-TRAF and 100 nM GST protein if not indicated otherwise; for KD His-TRAF6 at different concentrations, fit one site-specific binding with hill slope. Particulars: both partners purified.

For assay [6], the target named is T6, His-TRAF6_(310-522) K469A (human, UniProt Q9Y4K3 310-522, K469A).
T6 construct: also called TRAF6 K469A; source: E. coli BL21 Codon Plus RIPL, purified (Ni-NTA)
T6 sequence: B1 chain with K160A
The assay is described as above. To be noted: both partners purified.

The target of assay [7] is T7, His-TRAF6_(310-522) R392A (human, UniProt Q9Y4K3 310-522, R392A).
T7 construct: also called TRAF6 R392A; source: E. coli BL21 Codon Plus RIPL, purified (Ni-NTA)
T7 sequence: B1 chain with R83A
Described as above. To be noted: both partners purified.

For the assay “GST-LMP1_(181-386)”, the target named is B4. As to the kind of experiment: pull-down. To be noted: both partners purified.
The target in assay [8] is T2, His-TRAF6_(310-522). As to the kind of experiment: competition with GST-CD40(216-277).
The target of assay [9] is B1. The experiment in a line: AlphaScreen or HTRF; AlphaScreen PPI assay in competition: GST-LMP1 or GST-CD40 with His-TRAF6 (dose-response of TRAF6 inhibitor or control peptide, 4-parameter fit) or GST-LMP1 with His-TRAF2 (30 µM peptide). Particulars: both partners purified.

Take GPVQLSYYD (source: unlabeled peptide (PSL)) [LMP1 peptide G378PVQLSYYD]: the binding result with TRAF6_(346-504) for NMR was “binds”. As a reminder, the Kd is the free concentration of one partner at which half of the binding sites on the other are occupied at equilibrium, for simple one-to-one binding. A lower Kd goes with tighter binding. In the assay with His-TRAF6_(310-522) [1], GGGPYAQGEDARMLSLVSKTEIEEDSFRQMPTQDEYMDRPSQ (domain or fragment) [GST-RANK_(314-355) E346Q] gave a Kd of 15.6 nM. In other words, the double-digit nanomolar range. Regarding B1, the “factor of reduction of affinity against wild-type CD40” value in the assay with GST-CD40_(216-277) E235Q [2] was found to be 4.3 fold. In addition, the “fold reduction of affinity against wild-type LMP1” value with GST-LMP1_(181-386) Y384D is 1.8 fold. In addition, the “factor of reduction of affinity against wild-type RANK” value with GST-RANK_(314-355) E346Q worked out at 2 fold. Moreover, the Kd with GST-CD40_(216-277) E235Q [3] is 73.9 nM. For B2, the binding result in the assay with His-TRAF6_(310-522) [4] is “binds”. Still for that read-out and setting: under B3 stands “binds”. In the assay with His-TRAF6_(310-522) [5], B4 returned a Kd of 73.2 nM. Also, the binding result in [6] is on record as “binds”. Consider B5, for which the Kd with His-TRAF6_(310-522) [5] was 17.1 nM. Also, the binding result in assay [6] and in assay [7] was “binds” throughout. For the molecule B6, in the assay with GST-LMP1_(181-386), the binding result is listed as “binds”. For the molecule B7, in the assay with GST-LMP1_(181-386), the binding result is “binds”. Usually IC50 stands for the concentration at which inhibition is half-maximal. Read a low IC50 as higher potency. B8: the IC50 with His-TRAF6_(310-522) [8] came out at 546 nM; with His-TRAF6_(310-522) [9] it was 177 nM.
